Laboratory results reported in publication PMC6951436 (Cell reports, 2019).
Where “and” joins values, the source holds several entries; their conditions need not be identical. Identical values can stand only once.

Molecular target: the molecule itself
Assay: native gel or EMSA + SEC

Protein | stoichiometry N
pyruvate kinase liver isoform phosphorylated at S113 (PKL pS113) (enzyme, phosphoserine at 113 (82.8% phosphorylated)) not shown | 4 and 2
pyruvate kinase liver isoform phosphorylated at S12 (PKL pS12) (enzyme, phosphoserine at 12 (71.2% phosphorylated)) not shown | 4 and 2
